In patent US20200140562A1:
Where two headings read alike, the source gives them in different places.

B1: Hu106-222, humanized IgG1 OX40 antibody (antibody, from another filing, V domains shown)
VH: QVQLVQSGSELKKPGASVKVSCKASGYTFTDYSMHWVRQAPGQGLKWMGWINTETGEPTYADDFKGRFVFSLDTSVSTAYLQISSLKAEDTAVYYCANPYYDYVSYYAMDYWGQGTTVTVSS
VL: DIQMTQSPSSLSASVGDRVTITCKASQDVSTAVAWYQQKPGKAPKLLIYSASYLYTGVPSRFSGSGSGTDFTFTISSLQPEDIATYYCQQHYSTPRTFGQGTKLEIK
B2: IgG2 control (antibody, V domains shown)
VH: QLQLQKSGPGLVKPSETLSLTCTVSGFTFSNYAMGWIRQPPGKGLEWIGAISGSGGSTYYADSVKGRVTISVDTSKNQFSLKLSSVTAADTAVYYCARGGPGWYAADVWGQGTLVTVSS
VL: EIVLTQSPATLSLSPGERATLSCRASQSISSYLNWYQQKPGQAPRLLIYAASSLQSGIPARFSGSGSGTDFTLTISSLEPEDFAVYYCQQADLPAFAFGGGTKVEIKR

Experiments:
[1] = target: human OX40 on cells (CHO-hOX40, 293HEK-hOX40, Jurkat-hOX40, activated primary CD4+ T cells) (human) (UniProt P43489); experiment: cell-based or functional assay
[2] = target: human OX40 on cells (CHO-hOX40, 293HEK-hOX40, Jurkat-hOX40, activated primary CD4+ T cells) (human) (UniProt P43489); experiment: flow cytometry, CHO-hOX40
[3] = target: human OX40 on cells (CHO-hOX40, 293HEK-hOX40, Jurkat-hOX40, activated primary CD4+ T cells) (human) (UniProt P43489); experiment: flow cytometry, CHO-hOX40, […]
[4] = target: human OX40 on cells (CHO-hOX40, 293HEK-hOX40, Jurkat-hOX40, activated primary CD4+ T cells) (human) (UniProt P43489); experiment: flow cytometry, CHO-hOX40, 25 nM
[5] = target: human OX40 on cells (CHO-hOX40, 293HEK-hOX40, Jurkat-hOX40, activated primary CD4+ T cells) (human) (UniProt P43489); experiment: flow cytometry, CHO-hOX40, 50 nM
[6] = target: human OX40 on cells (CHO-hOX40, 293HEK-hOX40, Jurkat-hOX40, activated primary CD4+ T cells) (human) (UniProt P43489); experiment: flow cytometry, CHO-hOX40, 100 nM
[7] = target: human OX40 on cells (CHO-hOX40, 293HEK-hOX40, Jurkat-hOX40, activated primary CD4+ T cells) (human) (UniProt P43489); experiment: flow cytometry, CHO-hOX40, 100 nM; remark: listed apart in the source
[8] = target: human OX40 on cells (CHO-hOX40, 293HEK-hOX40, Jurkat-hOX40, activated primary CD4+ T cells) (human) (UniProt P43489); experiment: flow cytometry, CHO-hOX40, 200 nM
[9] = target: human OX40 on cells (CHO-hOX40, 293HEK-hOX40, Jurkat-hOX40, activated primary CD4+ T cells) (human) (UniProt P43489); experiment: flow cytometry, CHO-hOX40, 12.5 nM
[10] = target: human OX40 on cells (CHO-hOX40, 293HEK-hOX40, Jurkat-hOX40, activated primary CD4+ T cells) (human) (UniProt P43489); experiment: flow cytometry, CHO-hOX40, 6.25 nM
[11] = target: human OX40 on cells (CHO-hOX40, 293HEK-hOX40, Jurkat-hOX40, activated primary CD4+ T cells) (human) (UniProt P43489); experiment: flow cytometry, 293HEK-hOX40, 8 nM
[12] = target: human OX40 on cells (CHO-hOX40, 293HEK-hOX40, Jurkat-hOX40, activated primary CD4+ T cells) (human) (UniProt P43489); experiment: flow cytometry, CHO-hOX40, 3.125 nM
[13] = target: human OX40 on cells (CHO-hOX40, 293HEK-hOX40, Jurkat-hOX40, activated primary CD4+ T cells) (human) (UniProt P43489); experiment: flow cytometry, 293HEK-hOX40, 40 nM
[14] = target: human OX40 on cells (CHO-hOX40, 293HEK-hOX40, Jurkat-hOX40, activated primary CD4+ T cells) (human) (UniProt P43489); experiment: flow cytometry, 293HEK-hOX40, 1.6 nM
[15] = target: human OX40 on cells (CHO-hOX40, 293HEK-hOX40, Jurkat-hOX40, activated primary CD4+ T cells) (human) (UniProt P43489); experiment: flow cytometry, 293HEK-hOX40, 200 nM
[16] = target: human OX40 on cells (CHO-hOX40, 293HEK-hOX40, Jurkat-hOX40, activated primary CD4+ T cells) (human) (UniProt P43489); experiment: flow cytometry, CHO-hOX40, 0.78125 nM
[17] = target: human OX40_Fc (R&D Systems) (human) (UniProt P43489); experiment: BLI, IgG1 on tip, hOX40-Fc 50 nM, avid
[18] = target: human OX40_Fc (R&D Systems) (human) (UniProt P43489); experiment: BLI, IgG1 on tip, hOX40-Fc 50 nM, avid; remark: listed apart in the source
[19] = target: human OX40 on cells (CHO-hOX40, 293HEK-hOX40, Jurkat-hOX40, activated primary CD4+ T cells) (human) (UniProt P43489); experiment: flow cytometry, CHO-hOX40, 0.390625 nM
[20] = target: human OX40 on cells (CHO-hOX40, 293HEK-hOX40, Jurkat-hOX40, activated primary CD4+ T cells) (human) (UniProt P43489); experiment: flow cytometry, CHO-hOX40, 0.1953125 nM
[21] = target: human OX40 on cells (CHO-hOX40, 293HEK-hOX40, Jurkat-hOX40, activated primary CD4+ T cells) (human) (UniProt P43489); experiment: flow cytometry, CHO-hOX40, 0.09765625 nM
[22] = target: human OX40 on cells (CHO-hOX40, 293HEK-hOX40, Jurkat-hOX40, activated primary CD4+ T cells) (human) (UniProt P43489); experiment: flow cytometry, CHO-hOX40, 0.024414063 nM
[23] = target: human OX40 on cells (CHO-hOX40, 293HEK-hOX40, Jurkat-hOX40, activated primary CD4+ T cells) (human) (UniProt P43489); experiment: flow cytometry, CHO-hOX40, 0.048828125 nM
[24] = target: cyno OX40_Fc (Acro Biosystems) (cyno); experiment: BLI, IgG1 on tip, cyno OX40-Fc 100 nM, avid
[25] = target: cyno OX40_Fc (Acro Biosystems) (cyno); experiment: BLI, IgG1 on tip, cyno OX40-Fc 100 nM, avid; remark: listed apart in the source
[26] = target: human OX40 on cells (CHO-hOX40, 293HEK-hOX40, Jurkat-hOX40, activated primary CD4+ T cells) (human) (UniProt P43489); experiment: flow cytometry, MFI on CHO-hOX40 over wild-type CHO
[27] = target: human OX40 on cells (CHO-hOX40, 293HEK-hOX40, Jurkat-hOX40, activated primary CD4+ T cells) (human) (UniProt P43489); experiment: as above; remark: listed apart in the source
[28] = target: human OX40 on cells (CHO-hOX40, 293HEK-hOX40, Jurkat-hOX40, activated primary CD4+ T cells) (human) (UniProt P43489); experiment: flow cytometry, activated CD4+ T cells, donor 1, 100 nM
[29] = target: human OX40 on cells (CHO-hOX40, 293HEK-hOX40, Jurkat-hOX40, activated primary CD4+ T cells) (human) (UniProt P43489); experiment: flow cytometry, activated CD4+ T cells, donor 2, 100 nM
[30] = target: human OX40 on cells (CHO-hOX40, 293HEK-hOX40, Jurkat-hOX40, activated primary CD4+ T cells) (human) (UniProt P43489); experiment: flow cytometry, CHO-hOX40, 100 nM blocker, competitor OX40L-hFc-fluorescein

human OX40 on cells (CHO-hOX40, 293HEK-hOX40, Jurkat-hOX40, activated primary CD4+ T cells) (human), sequence (P43489 29-277): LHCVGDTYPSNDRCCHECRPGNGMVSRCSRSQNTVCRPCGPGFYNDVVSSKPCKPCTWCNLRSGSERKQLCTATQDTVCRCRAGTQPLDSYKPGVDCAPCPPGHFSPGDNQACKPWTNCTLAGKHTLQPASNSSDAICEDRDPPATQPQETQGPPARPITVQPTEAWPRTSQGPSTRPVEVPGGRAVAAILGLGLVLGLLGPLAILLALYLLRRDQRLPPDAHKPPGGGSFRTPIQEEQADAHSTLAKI
human OX40_Fc (R&D Systems) (human), sequence (P43489 29-216): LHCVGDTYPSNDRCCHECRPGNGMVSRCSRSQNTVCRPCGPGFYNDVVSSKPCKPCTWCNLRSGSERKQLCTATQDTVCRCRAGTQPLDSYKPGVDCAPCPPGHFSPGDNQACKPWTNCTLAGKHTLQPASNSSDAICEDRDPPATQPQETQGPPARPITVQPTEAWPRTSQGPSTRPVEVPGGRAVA

| Binder | MFI [3] [MFI] | MFI [4] [MFI] | MFI [5] [MFI] | MFI [6] [MFI] | MFI [8] [MFI] | MFI [9] [MFI] | MFI [10] [MFI] | MFI [12] [MFI] | MFI [16] [MFI] | MFI [19] [MFI] | MFI [20] [MFI] | MFI [21] [MFI] | MFI [22] [MFI] | MFI [23] [MFI] | further results |
| --- | --- | --- | --- | --- | --- | --- | --- | --- | --- | --- | --- | --- | --- | --- | --- |
| B1 | 1.25e+06 | 2.24e+06 | 2.34e+06 | 2.5e+06 | 2.64e+06 | 2.18e+06 | 2.02e+06 | 1.77e+06 | 600000 | 474000 | 181000 | 77600 | 26700 | 49800 | NFkB-Luc fold change in Jurkat stimulated by PHA+ anti-CD28 (fold over IgG4 control) [1]: 1.93; NFkB-Luc fold change in Jurkat stimulated by anti-CD3+ anti-CD28 (fold over IgG4 control) [1]: 1.77; EC50 [2]: 1.94 nM; CHO-OX40 binding intensity (MFI) [6]: 164000 MFI; CHO-OX40 binding intensity (MFI) [7]: 183000 MFI; MFI [11]: 1.74e+06 MFI; MFI [13]: 1.8e+06 MFI; MFI [14]: 650000 MFI; MFI [15]: 1.79e+06 MFI; Kd [17]: 0.25 nM; Kd [18]: 0.475 nM; Kd [24]: 4.96 nM; Kd [25]: 5.17 nM; Fold difference [26]: 2630 fold; Fold difference [27]: 1700 fold; MFI [28]: 115000 MFI; MFI [29]: 136000 MFI; MFI of OX40L signal on CHO-OX40 cells [30]: 25800 MFI |
| B2 | 2900 | 22100 | 44100 | 93000 | 216000 | 11900 | 6400 | 4150 | 2250 | 1890 | 1680 | 1590 | 1510 | 1560 |  |
